The record followed here is patent publication US20240002490A1 (SCHOLAR ROCK, published 2024).

Test [1] addresses T1, rat promyostatin (rat, UniProt O35312 25-376). Description: cell-based or functional assay.
In test [2] the target is T2, cynomolgus monkey promyostatin (cynomolgus monkey, UniProt Q95J86 19-375). Description: cell-based or functional assay.
The target of test [3] is T1, rat promyostatin. Description: biolayer interferometry (ForteBio Octet QKe), apitegromab on human Fc capture tips, promyostatin in solution, 1:1 global fit, single concentration. For orientation: In BLI a coated tip is dipped into the sample, and binding shifts an interference pattern.
Protocol: (§1) All baseline steps, loading of biotinylated antigens, and antibody association and dissociation steps were performed in 1× kinetics buffer containing PBS pH 74 with 0.002% Tween 20 and 0.01% BSA. Association proceeded for 300 seconds and dissociations were then performed in 1× kinetics buffer for at least 600 seconds. Data analysis was performed on FortèBio Data Analysis software version 8.2. A 1:1 global fitting model considering both association and dissociation was then utilized for the single concentration KD determination for each antigen antibody/construct pair.
The target in test [4] is T2, cynomolgus monkey promyostatin. The description is as above.
Protocol: as §1

B1: Apitegromab (antibody, human IgG4 S228P, lambda, V domains shown)
VH: QVQLVESGGGVVQPGRSLRLSCAASGFTFSSYGMHWVRQAPGKGLEWVAVISYDGSNKYYADSVKGRFTISRDNSKNTLYLQMNSLRAEDTAVYYCARDLLVRFLEWSHYYGMDVWGQGTTVTVSS
VL: not shown
notes: Fully human monoclonal IgG4/lambda; also called SRK-015; anti-pro/latent myostatin antibody
In general, Kd refers to the equilibrium constant for the complex coming apart. As to B1, the figures for the “IC50 of inhibition of proteolytic activation of promyostatin (SMAD-responsive luciferase reporter cells)” value in test [1] and in test [2] were 153 nM and 584 nM, respectively. In addition, the Kd amounted to 2 nM in test [3] and 4.86 nM in test [4].
